Reference: patent publication US20180118848A1

target: human MUC16 (mucin 16) (human); test: MSD ECL cell binding, RLU ratio OVCAR-3 vs SK-OV-3, […] Ab; NS = ratio <2.5-fold

Ratio anti-MUC16 Binding OVCAR-3/SK-OV-3, < 2.5:
hIgG1 Isotype Control Antibody
mIgG1 Isotype Control Antibody
mIgG2a Isotype Control Antibody
